Each block holds one binder with its values, some of them ahead of it.
What was measured:
[1] = target: T1, FLAG tagged B3GNT2 (N- or C-terminal FLAG tag) (human, UniProt Q9NY97 1-397); assay: co-IP of FLAG tagged B3GNT2 from A375 lysate, Western blot
T1 construct: The text speaks of the co-IP of B3GNT2 without separating the N-FLAG and C-FLAG constructs, so both are held as one molecule; also called N-FLAG B3GNT2; C-FLAG B3GNT2; not shown: FLAG tag at the N- or the C-terminus
T1 sequence (looked up): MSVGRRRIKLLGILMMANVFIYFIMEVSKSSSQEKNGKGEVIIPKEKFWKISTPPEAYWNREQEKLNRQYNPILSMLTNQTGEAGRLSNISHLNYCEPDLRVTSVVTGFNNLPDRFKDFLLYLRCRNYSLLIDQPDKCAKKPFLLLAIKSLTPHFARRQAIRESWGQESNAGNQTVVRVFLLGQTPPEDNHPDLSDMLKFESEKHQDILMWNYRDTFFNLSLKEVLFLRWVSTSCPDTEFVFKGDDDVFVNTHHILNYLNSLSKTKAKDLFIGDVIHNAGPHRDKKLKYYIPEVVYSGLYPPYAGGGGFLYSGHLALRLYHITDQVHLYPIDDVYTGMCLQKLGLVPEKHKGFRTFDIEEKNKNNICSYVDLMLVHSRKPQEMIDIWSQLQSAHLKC
Protocol: (§1) Cells were plated in 10-cm cell culture dishes and grown to 60-80% confluency. For each condition, two biological replicates were harvested for co-IP. Cells were washed with PBS and 4 mL of lysis buffer (20 mM HEPES, 1% Triton X-100, 150 mM NaCl, 1 mM EDTA, and 10% glycerol) containing protease inhibitor cocktail was added. Cells were scraped and lysate was incubated at 4° C. under rotary agitation for 1 h. Lysate was centrifuged at 14,000×g for 10 min at 4° C. Supernatant was transferred to a new tube and an aliquot was taken as the input. […] For Western blots, 10 μg/mL Chicken Anti-FLAG (Aves labs ET-DY100) and IgY control (R&D Systems AB-101-C) antibodies were biotinylated (Thermo Fisher Scientific 90407) and added to the respective conditions. Lysates with antibodies were incubated at 4° C. under rotary agitation overnight. For each mL of lysate, 50 μL of Pierce Protein A/G Magnetic Beads (Mass spectrometry; Thermo Fisher Scientific 88803) or Pierce Streptavidin Magnetic Beads (Western blot; Thermo Fisher Scientific 88817) was washed twice with lysis buffer. Lysates with antibodies were added to the beads and incubated at 4° C. under rotary agitation for 4 h. Beads were washed with lysis buffer 3 times and resuspended in lysis buffer for storage.

VIM = target: T2, VIM (human, UniProt P08670 2-466); assay: co-IP with mouse anti-FLAG from lysate of cells overexpressing C-FLAG B3GNT2, then mass spectrometry
T2 construct: Identified by mass spectrometry in the co-IP; also called NP_003371.2
Protocol: as §1
(§2) Magnetic beads were resuspended in 100 mM Tris pH 7.8, reduced, alkylated and digested with trypsin at 37° ° C. overnight. This solution was subjected to solid phase extraction to concentrate the peptides and remove unwanted reagents followed by injection onto a Shimadzu HPLC with fraction collector. Eight fractions were collected and after concentration were injected on a Waters NanoAcquity HPLC equipped with a self-packed Aeris 3 μm C18 analytical column 0.075 mm by 20 cm, (Phenomenex). Peptides were eluted using standard reverse-phase gradients. The effluent from the column was analyzed using a Thermo Orbitrap Elite mass spectrometer (nanospray configuration) operated in a data dependent manner for 54 minutes. The resulting fragmentation spectra were correlated against the known database using Proteome Discover 1.4 (Thermo Fisher Scientific).

CPSF6 = target: T3, CPSF6 (human, UniProt Q16630-2 1-588, limits assumed); assay: as above
T3 construct: Identified by mass spectrometry in the co-IP; also called NP_001287876.1 (+3)
T3 sequence (looked up): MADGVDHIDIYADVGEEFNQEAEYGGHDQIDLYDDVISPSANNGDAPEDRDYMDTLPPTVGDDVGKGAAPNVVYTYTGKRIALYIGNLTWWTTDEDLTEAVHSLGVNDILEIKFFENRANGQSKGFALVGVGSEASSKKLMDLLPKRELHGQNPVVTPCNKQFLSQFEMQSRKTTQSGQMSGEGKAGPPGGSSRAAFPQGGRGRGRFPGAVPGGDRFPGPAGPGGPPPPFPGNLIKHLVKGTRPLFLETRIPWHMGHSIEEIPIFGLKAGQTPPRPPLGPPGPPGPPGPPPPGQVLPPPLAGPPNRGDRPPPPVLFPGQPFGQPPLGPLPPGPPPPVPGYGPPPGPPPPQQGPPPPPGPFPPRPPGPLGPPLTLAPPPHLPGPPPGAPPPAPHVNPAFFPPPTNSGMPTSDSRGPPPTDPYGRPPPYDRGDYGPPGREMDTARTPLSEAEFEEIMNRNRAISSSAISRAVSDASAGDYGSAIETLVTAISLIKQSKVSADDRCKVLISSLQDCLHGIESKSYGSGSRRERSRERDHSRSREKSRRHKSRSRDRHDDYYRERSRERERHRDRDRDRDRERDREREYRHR
Protocol: as §1, §2

ANXA2 = target: T4, ANXA2 (human, UniProt P07355-2 1-357, limits assumed); assay: as above
T4 construct: Identified by mass spectrometry in the co-IP; also called NP_001002858.1 (+1)
Protocol: as §1, §2

CAPRIN1 = target: T5, CAPRIN1 (human, UniProt Q14444 2-709); assay: as above
T5 construct: Identified by mass spectrometry in the co-IP; also called NP_005889.3 (+1)
T5 sequence (looked up): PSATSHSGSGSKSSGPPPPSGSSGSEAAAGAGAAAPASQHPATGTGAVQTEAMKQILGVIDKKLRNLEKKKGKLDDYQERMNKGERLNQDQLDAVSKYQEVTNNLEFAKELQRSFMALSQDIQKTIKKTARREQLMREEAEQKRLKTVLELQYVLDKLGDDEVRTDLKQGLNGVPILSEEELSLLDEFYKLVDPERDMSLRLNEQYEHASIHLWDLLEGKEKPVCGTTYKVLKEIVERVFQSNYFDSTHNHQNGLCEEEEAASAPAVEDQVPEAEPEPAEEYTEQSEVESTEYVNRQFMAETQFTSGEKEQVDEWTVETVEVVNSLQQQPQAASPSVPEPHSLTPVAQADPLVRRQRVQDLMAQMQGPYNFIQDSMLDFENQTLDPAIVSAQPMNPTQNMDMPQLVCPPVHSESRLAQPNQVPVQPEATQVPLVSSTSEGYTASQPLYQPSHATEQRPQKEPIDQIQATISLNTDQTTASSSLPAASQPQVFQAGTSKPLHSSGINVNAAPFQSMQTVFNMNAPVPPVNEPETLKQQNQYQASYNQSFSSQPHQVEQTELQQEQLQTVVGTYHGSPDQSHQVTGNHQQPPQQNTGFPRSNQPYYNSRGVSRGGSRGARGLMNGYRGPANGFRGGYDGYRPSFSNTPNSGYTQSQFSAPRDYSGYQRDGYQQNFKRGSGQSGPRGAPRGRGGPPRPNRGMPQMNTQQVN
Protocol: as §1, §2

CASC3 = target: T6, CASC3 (human, UniProt O15234 1-703); assay: as above
T6 construct: Identified by mass spectrometry in the co-IP; also called NP_031385.2
Protocol: as §1, §2

KHDRBS1 = target: T7, KHDRBS1 (human, UniProt Q07666 1-443); assay: as above
T7 construct: Identified by mass spectrometry in the co-IP; also called NP_006550.1
Protocol: as §1, §2

PABPC1 = target: T8, PABPC1 (human, UniProt P11940 1-636); assay: as above
T8 construct: Identified by mass spectrometry in the co-IP; also called NP_002559.2
Protocol: as §1, §2

T8 sequence (P11940 whole entry): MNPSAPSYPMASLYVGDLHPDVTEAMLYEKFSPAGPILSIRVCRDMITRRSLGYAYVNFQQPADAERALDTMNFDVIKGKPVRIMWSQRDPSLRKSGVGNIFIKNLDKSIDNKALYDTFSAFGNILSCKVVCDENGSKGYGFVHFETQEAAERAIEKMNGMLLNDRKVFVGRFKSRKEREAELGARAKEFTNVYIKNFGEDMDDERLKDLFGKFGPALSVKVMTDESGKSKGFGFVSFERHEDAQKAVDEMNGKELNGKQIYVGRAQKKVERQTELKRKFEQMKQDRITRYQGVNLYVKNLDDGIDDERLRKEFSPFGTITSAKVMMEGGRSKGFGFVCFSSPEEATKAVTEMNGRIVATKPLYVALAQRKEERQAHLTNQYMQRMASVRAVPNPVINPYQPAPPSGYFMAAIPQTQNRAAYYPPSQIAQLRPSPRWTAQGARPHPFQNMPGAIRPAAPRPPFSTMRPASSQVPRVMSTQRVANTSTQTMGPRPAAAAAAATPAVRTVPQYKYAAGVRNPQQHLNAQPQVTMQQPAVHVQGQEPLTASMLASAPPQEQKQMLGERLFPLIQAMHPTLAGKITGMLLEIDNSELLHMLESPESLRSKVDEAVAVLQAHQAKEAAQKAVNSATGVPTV
T4 sequence (P07355 other isoform, or with tags, fused parts or gaps limits assumed): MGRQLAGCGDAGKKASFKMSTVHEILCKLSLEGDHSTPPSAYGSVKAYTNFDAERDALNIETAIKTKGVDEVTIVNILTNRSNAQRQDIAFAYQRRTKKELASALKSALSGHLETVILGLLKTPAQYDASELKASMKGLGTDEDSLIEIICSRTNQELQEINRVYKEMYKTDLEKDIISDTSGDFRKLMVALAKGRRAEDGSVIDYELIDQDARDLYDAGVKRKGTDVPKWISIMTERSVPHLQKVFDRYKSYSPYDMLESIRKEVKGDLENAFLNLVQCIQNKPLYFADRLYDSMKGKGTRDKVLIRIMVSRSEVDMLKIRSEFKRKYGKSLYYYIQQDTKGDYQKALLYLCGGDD
T6 sequence (O15234 whole entry): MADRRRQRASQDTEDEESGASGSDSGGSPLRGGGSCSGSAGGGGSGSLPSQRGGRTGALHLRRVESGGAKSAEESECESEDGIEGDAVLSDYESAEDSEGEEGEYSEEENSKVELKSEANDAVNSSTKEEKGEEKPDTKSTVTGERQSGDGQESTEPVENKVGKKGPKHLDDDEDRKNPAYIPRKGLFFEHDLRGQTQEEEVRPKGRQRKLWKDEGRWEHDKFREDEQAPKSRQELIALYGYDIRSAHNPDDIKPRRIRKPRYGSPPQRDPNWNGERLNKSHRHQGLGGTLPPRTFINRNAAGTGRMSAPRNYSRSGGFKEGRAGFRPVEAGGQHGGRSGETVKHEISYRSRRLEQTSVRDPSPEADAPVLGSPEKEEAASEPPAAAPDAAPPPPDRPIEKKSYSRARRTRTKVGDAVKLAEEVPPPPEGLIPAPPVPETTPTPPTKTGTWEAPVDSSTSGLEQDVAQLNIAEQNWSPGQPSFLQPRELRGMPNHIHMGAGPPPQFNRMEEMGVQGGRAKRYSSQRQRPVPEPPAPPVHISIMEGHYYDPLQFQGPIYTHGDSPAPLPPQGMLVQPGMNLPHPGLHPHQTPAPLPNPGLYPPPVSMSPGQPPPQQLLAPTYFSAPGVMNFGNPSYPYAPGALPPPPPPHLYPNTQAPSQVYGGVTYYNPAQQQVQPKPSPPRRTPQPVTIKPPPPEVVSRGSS
T2 sequence (P08670 2-466 limits assumed): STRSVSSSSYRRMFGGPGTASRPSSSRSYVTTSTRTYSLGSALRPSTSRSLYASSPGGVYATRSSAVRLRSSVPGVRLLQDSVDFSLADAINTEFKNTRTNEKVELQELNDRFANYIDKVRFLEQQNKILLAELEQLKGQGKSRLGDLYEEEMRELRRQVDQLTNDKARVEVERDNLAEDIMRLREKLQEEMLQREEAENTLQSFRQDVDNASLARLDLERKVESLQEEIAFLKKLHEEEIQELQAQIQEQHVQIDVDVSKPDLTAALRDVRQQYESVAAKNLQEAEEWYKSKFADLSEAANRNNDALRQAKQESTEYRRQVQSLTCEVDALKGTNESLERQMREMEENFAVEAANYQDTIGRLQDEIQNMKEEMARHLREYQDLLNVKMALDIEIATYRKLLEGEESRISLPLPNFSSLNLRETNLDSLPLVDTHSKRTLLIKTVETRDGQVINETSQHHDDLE
T7 sequence (Q07666 whole entry): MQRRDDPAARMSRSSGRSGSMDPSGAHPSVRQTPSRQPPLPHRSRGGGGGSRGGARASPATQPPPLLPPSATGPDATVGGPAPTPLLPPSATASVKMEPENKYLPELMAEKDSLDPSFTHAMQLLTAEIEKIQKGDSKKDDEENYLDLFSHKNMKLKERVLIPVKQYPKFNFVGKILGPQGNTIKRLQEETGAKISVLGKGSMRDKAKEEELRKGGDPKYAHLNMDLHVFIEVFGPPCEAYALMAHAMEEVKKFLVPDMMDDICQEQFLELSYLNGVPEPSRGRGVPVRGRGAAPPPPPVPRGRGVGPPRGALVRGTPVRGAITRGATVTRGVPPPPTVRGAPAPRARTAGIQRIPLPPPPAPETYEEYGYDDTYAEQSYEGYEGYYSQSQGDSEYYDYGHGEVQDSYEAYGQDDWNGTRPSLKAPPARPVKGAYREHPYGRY

B1: FAS, endogenous in A375 melanoma cells (receptor, human, UniProt P25445 26-335, looked up)
chain: QVTDINSKGLELRKTVTTVETQNLEGLHHDGQFCHKPCPPGERKARDCTVNGDEPDCVPCQEGKEYTDKAHFSSKCRRCRLCDEGHGLEVEINCTRTQNTKCRCKPNFFCNSTVCEHCDPCTKCEHGIIKECTLTSNTKCKEEGSRSNLGWLCLLLLPIPLIVWVKRKEVQKTCRKHRKENQGSHESPTLNPETVAINLSDVDLSKYITTIAGVMTLSQVKGFVRKNGVNEAKIDEIKNDNVQDTAEQKVQLLRNWHQLHGKKEAYDTLIKDLKKANLCTLAEKIQTIILKDITSDSENSNFRNEIQSLV
modifications: poly-LacNAc glycosylation added by B3GNT2 (sites not given)
notes: whole, on cells; In the co-IP it comes from the lysate of A375 cells; also called Fas receptor
binding result [1]: binds

B2: CD58, endogenous in A375 melanoma cells (ligand, human, UniProt P19256 29-250, looked up)
chain: FSQQIYGVVYGNVTFHVPSNVPLKEVLWKKQKDKVAELENSEFRAFSSFKNRVYLDTVSGSLTIYNLTSSDEDEYEMESPNITDTMKFFLYVLESLPSPTLTCALTNGSIEVQCMIPEHYNSHRGLIMYSWDCPMEQCKRNSTSIYFKMENDLPQKIQCTLSNPLFNTTSSIILTTCIPSSGHSRHRYALIPIPLAVITTCIVLYMNGILKCDRKPDRTNSN
modifications: poly-LacNAc glycosylation added by B3GNT2 (sites not given)
notes: whole, on cells; On fixed A375 cells in flow cytometry; In the co-IP it comes from the lysate of these cells
binding result [1]: binds

B5: IFNGR2, endogenous in A375 melanoma cells (receptor, human, UniProt P38484 22-337, looked up)
chain: APPDPLSQLPAPQHPKIRLYNAEQVLSWEPVALSNSTRPVVYQVQFKYTDSKWFTADIMSIGVNCTQITATECDFTAASPSAGFPMDFNVTLRLRAELGALHSAWVTMPWFQHYRNVTVGPPENIEVTPGEGSLIIRFSSPFDIADTSTAFFCYYVHYWEKGGIQQVKGPFRSNSISLDNLKPSRVYCLQVQAQLLWNKSNIFRVGHLSNISCYETMADASTELQQVILISVGTFSLLSVLAGACFFLVLKYRGLIKYWFHTPPSIPLQIEEYLKDPTQPILEALDKDSSPKDDVWDSVSIISFPEKEQEDVLQTL
modifications: poly-LacNAc glycosylation added by B3GNT2 (sites not given)
notes: whole, on cells; In the co-IP it comes from the lysate of A375 cells
binding result [1]: binds

Next, values leading:

co-IP mass spectrometry count (C-term flag) (VIM): 411
co-IP mass spectrometry count (C-term flag) (CPSF6): 35
co-IP mass spectrometry count (C-term flag) (ANXA2): 15
co-IP mass spectrometry count (C-term flag) (CAPRIN1): 6
co-IP mass spectrometry count (C-term flag) (CASC3): 0
co-IP mass spectrometry count (C-term flag) (KHDRBS1): 9
co-IP mass spectrometry count (C-term flag) (PABPC1): 41
B3: C-terminal FLAG tagged B3GNT2 (enzyme, human, UniProt Q9NY97 1-397, looked up)
chain: MSVGRRRIKLLGILMMANVFIYFIMEVSKSSSQEKNGKGEVIIPKEKFWKISTPPEAYWNREQEKLNRQYNPILSMLTNQTGEAGRLSNISHLNYCEPDLRVTSVVTGFNNLPDRFKDFLLYLRCRNYSLLIDQPDKCAKKPFLLLAIKSLTPHFARRQAIRESWGQESNAGNQTVVRVFLLGQTPPEDNHPDLSDMLKFESEKHQDILMWNYRDTFFNLSLKEVLFLRWVSTSCPDTEFVFKGDDDVFVNTHHILNYLNSLSKTKAKDLFIGDVIHNAGPHRDKKLKYYIPEVVYSGLYPPYAGGGGFLYSGHLALRLYHITDQVHLYPIDDVYTGMCLQKLGLVPEKHKGFRTFDIEEKNKNNICSYVDLMLVHSRKPQEMIDIWSQLQSAHLKC
notes: FLAG-tagged ORF overexpressed in A375 cells; bait of the co-IP with mouse anti-FLAG; also called C-FLAG B3GNT2; C-term flag; not shown: C-terminal FLAG tag

binding result [1]: binds
B4: CD70, endogenous in A375 melanoma cells (ligand, human, UniProt P32970 1-193, looked up)
chain: MPEEGSGCSVRRRPYGCVLRAALVPLVAGLVICLVVCIQRFAQAQQQLPLESLGWDVAELQLNHTGPQQDPRLYWQGGPALGRSFLHGPELDKGQLRIHRDGIYMVHIQVTLAICSSTTASRHHPTTLAVGICSPASRSISLLRLSFHQGCTIASQRLTPLARGDTLCTNLTGTLLPSRNTDETFFGVQWVRP
modifications: poly-LacNAc glycosylation added by B3GNT2 (sites not given)
notes: as for B5

binding result [1]: binds
B6: MICB, endogenous in A375 melanoma cells (ligand, human, UniProt Q29980 23-383, looked up)
chain: AEPHSLRYNLMVLSQDGSVQSGFLAEGHLDGQPFLRYDRQKRRAKPQGQWAENVLGAKTWDTETEDLTENGQDLRRTLTHIKDQKGGLHSLQEIRVCEIHEDSSTRGSRHFYYDGELFLSQNLETQESTVPQSSRAQTLAMNVTNFWKEDAMKTKTHYRAMQADCLQKLQRYLKSGVAIRRTVPPMVNVTCSEVSEGNITVTCRASSFYPRNITLTWRQDGVSLSHNTQQWGDVLPDGNGTYQTWVATRIRQGEEQRFTCYMEHSGNHGTHPVPSGKALVLQSQRTDFPYVSAAMPCFVIIIILCVPCCKKKTSAAEGPELVSLQVLDQHPVGTGDHRDAAQLGFQPLMSATGSTGSTEGT
modifications: poly-LacNAc glycosylation added by B3GNT2 (sites not given)
notes: as for B2

Reference: US20240261333A1 (published 2024)
